According to the nanobody polyreactivity screen of Harvey et al. (2022):

Experiment: yeast display, Sf9 membrane polyspecificity reagent, FACS + sequencing; frameworks hold sequencing errors
Summary of the method: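 Synthetic nanobody libraries on Saccharomyces cerevisiae BJ5465 were galactose-induced for 36–48 hours, stained 1 hour at 4 °C with 10% biotinylated, detergent-solubilized Sf9 membrane reagent and enriched on streptavidin microbeads. FACS then separated cells into low and high (top ~1%) gates by anti-HA (expression) and streptavidin (reagent binding) fluorescence. Genes were colony-PCR amplified, MiSeq 2 × 250 sequenced and CDR-length filtered. A clone's polyreactivity label is that of its gate of origin.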

| Sequence | polyreactivity (PSR sort gate) |
| --- | --- |
| QVQLVESGGGLVQAGGSLRLSCAASGRTFRYYAMGWYRQAPGKERELVAAISSRGNTYYADSVKGRFTISRDNAKNTVYLQMNSLKPEDTAVYYCAAYVYRVQYDFDYWGQGTQVTVSS | high polyreactivity |
| QVQLVESGGGLVQAGGSLRLSCAASGRTFRYYAMGWYRQAPGKERELVAAITGSGGSTYYADSVKGRFTISRDNAKNTVYLQMHSLKPEDTAVYYCNTYLSRWSGERDYWGQGTQVTVSS | high polyreactivity |
| QVQLVESGGGLVQAGGSLRLSCAASGRTFRYYAMGWYRQAPGKERELVAGISSSGRTYYADSVKGRFTISRDNAKNTVYLQMNSLKPEDTAVYYCNAVYWPVRPVDRHDYWGQGTQVTVSS | high polyreactivity |
| QVQLVESGGGLVQAGGSLRLSCAASGRTFRYYAMGWYRQAPGKERELVASISSTGGNTYYADSVKGRFTISRDNAKNTVYLQMNSLKPEDTAVYYCAAGAWTRGQYYYWGQGTQVTVSS | high polyreactivity |
| QVQLVESGGGLVQAGGSLRLSCAASGRTFRYYAMGWYRQAPGKERELVASITSGGRTYYADSVKGRFTISRDNAKNTVYLQMNSLKPEDTAVYYCAADRFGIGGKRGNDYWGQGTQVTVSS | high polyreactivity |
| QVQLVESGGGLVQAGGSLRLSCAASGRTFRYYAMGWYRQAPGKEREWDAAISRGDSTHYADSVKGRFTISRDNAKNSVYLQMNSLKPEDTEVYYCAAYRGRSVDRQPYYWGQGTQVTVSS | high polyreactivity |
| QVQLVESGGGLVQAGGSLRLSCAASGRTFRYYAMGWYRQAPGKESELVAAIRTRGASTYYADSVKGRFTISRDNAKNTVYLQMNSLKPEDTAVYYCAKRAHFSSARHVYYIYDYWGQGTQVTVSS | low polyreactivity |
| QVQLVESGGGLVQAGGSLRLSCAASGRTFRYYAMGWYRQAPGKVRELVAAISWNGANTYYADSVKGRFTISRDNAKNTVYLQMNSLKPEDTAVYYCAATYYRWKGYDYWGQGTQVTVSS | high polyreactivity |
| QVQLVESGGGLVQAGGSLRLSCAASGRTFRYYSMGWYRQAPGKERELVATITGSGGSTYYADSVKGRFTISRDNAKNTVYLQMNSLKPEDTAVYYCNARKVRYPYRWYDYWGQGTQVTVSS | high polyreactivity |
| QVQLVESGGGLVQAGGSLRLSCAASGRTFRYYVMGWYRQAPGKERELVAAINRRGDNTYYADSVKGRLTISRDNAKNTVYLQMNSLKPEDTAVYYCAARREPYQYNQYYSWGQGTQVTVSS | high polyreactivity |
| QVQLVESGGGLVQAGGSLRLSCAASGRTFRYYVMGWYRQAPGKERELVAAISRTGGNTYYADSVKGRFTISRDNAKNTVYLQMNSLKPEDTAVYYCNTVRRPSSWRYDYWGQGTQVTVSS | high polyreactivity |
| QVQLVESGGGLVQAGGSLRLSCAASGRTFSANAMGWYRQAPGKERELVATISSGGRTNYADSVKGRFTISRDNAMNTVYLQMNSLKPEDTAVYYCAADFDYAYWDTTYDYWGQGTQVTVSS | low polyreactivity |
| QVQLVESGGGLVQAGGSLRLSCAASGRTFSAYAMGWYRQAPGKERELVARITSVDSTNYADSVKGRFTISRDNAKNTVYLQMNSLKPEDTAVYYCNATFGYPFVDYDDYWGQGTQVTGSS | low polyreactivity |
| QVQLVESGGGLVQAGGSLRLSCAASGRTFSAYAMGWYRQAPGKERELVARITSVDSTNYADSVKGRFTISRDNAKNTVYLQMNSLKPEDTAVYYCNATFGYPFVEYDDYWGQGTQVTVSS | low polyreactivity |
| QVQLVESGGGLVQAGGSLRLSCAASGRTFSDYVMGWYRQAPGKERELVAAINIGGGSTYYADSVKGRFTISRDNAKNTVYLQMNSLKPEDTAVYYCAAESAGSYLDYYWAYGYWGQGTQVTVSS | low polyreactivity |
| QVQLVESGGGLVQAGGSLRLSCAASGRTFSENAMGWYRQAPGKERELVAAISGSGGRTYYADSVKGRFTISRDNAKNTVYLQMNRLKPEDTAVYYCAKVTRYGSTYDYWGQGTQVTVSS | high polyreactivity |
